The record followed here is patent publication US7846202B2, “Coated implantable medical device” (Cook Incorporated, priority 1995, dated 2010).

Data set [1] is described as follows: In-vitro flow system perfusion of antibody-loaded stents (antibody remaining on stent). The class given is physicochemical. As to conditions: 10 ml/min, 1% BSA in PBS, after approximately 10 days perfusion. The method, then:
In one example, device 10 is a stainless steel GR II™ stent in which the stainless steel base material 14 of structure 12 is coated with a polymer and, in particular, parylene. This adsorbent polymer layer 16 of parylene is approximately 230,000 Å thick. Bioactive material layer 18 of the antiplatelet GP IIb/IIIa antibody (AZ1) was passively loaded on adsorbent polymer layer 16. The polymer coated stainless steel stents were immersed for approximately 24 hours in a buffered aqueous solution of AZ1 antibody (1 mg/ml, pH=7.2) at 37° C. AZ1 is a monoclonal anti-rabbit platelet glycoprotein (GP) IIb/IIIa antibody.
In another example, c7E3 Fab as bioactive material layer 18 is attached to polymer coating layer 16. Bioactive material c7E3 Fab is a chimeric monoclonal antibody that acts upon the […] integrin on platelets to inhibit their aggregation. This antibody or receptor blocker may be used in humans intravenously to prevent thrombosis during coronary angioplasty. This receptor blocker is also known as ReoPro™ available from Eli Lilly, Indianapolis, Ind. Bioactive material layer 18 of the antiplatelet GP IIb/IIIa antibody (c7E3 Fab) was passively loaded on adsorbent polymer layer 16. […]

Data set [2] in a line: In vitro release rate of bioactive material from beneath porous parylene layer. It is filed as physicochemical. As to conditions: dexamethasone layer over heparin layer, compared with the material alone. The method, then:
When the at least one layer 18 of bioactive material contains a relatively soluble material such as heparin, the at least one layer 18 preferably contains a total of from about 0.1 to about 4 mg of bioactive material per cm^2 of the gross surface area of the structure 12. This provides a release rate for the heparin (measured in vitro) which is desirably in the range of 0.1 to 0.5 mg/cm^2 per day, and preferably about 0.25 mg/cm^2 per day, under typical blood flows through vascular stents. It should be noted that the solubility of dexamethasone may be adjusted as desired, with or without the inclusion of heparin, by mixing it with one or more of its relatively more soluble derivatives, such as dexamethasone sodium phosphate.
For example, when the structure 12 of the device 10 is configured as a vascular stent, it is advantageous for the at least one layer 18 to contain relatively soluble heparin, and the second layer 22 to contain relatively less soluble dexamethasone. […] More particularly, when dexamethasone is disposed by itself beneath a porous parylene layer 20 dimensioned as disclosed above, its release rate is negligible; an adequate release rate is obtained only when the thickness of the porous layer 20 is reduced by a factor of ten or more. […]

As for “c7E3 Fab: chimeric monoclonal antibody that acts upon the […] integrin on platelets to inhibit their aggregation”, in data set [1], the “fraction of loaded antibody remaining on the stent” value is given as “approximately half”.

For the substance heparin, in data set [2], the “change of release rate in heparin/dexamethasone two-layer device” value was “lowered”.
